Assay results as given in publication PMC7246612, “The In Vitro Non-Tetramerizing ZapA^I83E Mutant Is Unable to Recruit ZapB to the Division Plane In Vivo in Escherichia coli” (International Journal of Molecular Sciences, 2020).
Where a chain is given by its changes, count along the chain named. Names and notes keep the numbering of the source. One block for each binder: values may come before it.

Legend:
[1] = molecular target: T1, mKO–PBP1a (inner membrane protein PBP1a fused to mKO) (UniProt P02918 1-850); experiment: FRET or BRET; in vivo FRET in E. coli TB28 ∆zapA cells; mKO fusion (donor) and mCh fusion (acceptor) expressed from plasmids; energy transfer efficiency (EfA) by spectral unmixing; settings: partners not purified
T1 construct: PBP1a, inner membrane protein; Negative control partner in the FRET assay; also called pBB004; pSAV–mKO–PBP1a; source: E. coli TB28 ∆zapA, expressed from plasmid pBB004, in living cells; not shown: mKO, N-terminal, kept
T1 sequence (looked up): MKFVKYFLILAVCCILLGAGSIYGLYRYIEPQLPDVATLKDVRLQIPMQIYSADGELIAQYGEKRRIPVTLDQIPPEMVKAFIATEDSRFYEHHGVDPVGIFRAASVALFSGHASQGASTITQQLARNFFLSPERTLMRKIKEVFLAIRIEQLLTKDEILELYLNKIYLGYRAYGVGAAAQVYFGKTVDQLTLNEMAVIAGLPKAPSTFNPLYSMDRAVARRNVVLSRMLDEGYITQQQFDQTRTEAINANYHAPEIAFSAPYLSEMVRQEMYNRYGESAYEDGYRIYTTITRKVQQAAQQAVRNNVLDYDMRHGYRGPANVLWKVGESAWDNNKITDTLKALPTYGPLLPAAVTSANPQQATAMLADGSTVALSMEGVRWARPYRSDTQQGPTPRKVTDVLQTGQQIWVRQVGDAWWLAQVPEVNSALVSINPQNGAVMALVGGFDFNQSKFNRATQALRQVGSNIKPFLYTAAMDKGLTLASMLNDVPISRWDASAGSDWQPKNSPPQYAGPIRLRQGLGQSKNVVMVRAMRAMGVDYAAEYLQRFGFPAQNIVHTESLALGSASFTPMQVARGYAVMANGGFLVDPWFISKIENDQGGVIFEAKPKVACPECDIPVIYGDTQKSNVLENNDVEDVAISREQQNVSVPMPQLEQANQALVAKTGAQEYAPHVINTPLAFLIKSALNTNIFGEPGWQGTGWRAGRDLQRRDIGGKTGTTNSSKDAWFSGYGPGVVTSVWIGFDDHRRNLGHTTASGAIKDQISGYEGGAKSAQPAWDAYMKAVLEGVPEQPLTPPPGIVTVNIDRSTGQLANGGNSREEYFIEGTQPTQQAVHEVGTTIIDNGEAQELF

[2] = molecular target: T2, mKO–FtsZ (filamenting temperature-sensitive Z fused to mKO) (Escherichia coli, UniProt P0A9A6 1-383); experiment: as above; settings: partners not purified
T2 construct: filamenting temperature-sensitive Z (FtsZ), Escherichia coli; also called pSAV072; pSAV–mKO–FtsZ; source: E. coli TB28 ∆zapA or WT strain, expressed from plasmid pSAV072, in living cells; not shown: mKO, N-terminal, kept
T2 sequence (looked up): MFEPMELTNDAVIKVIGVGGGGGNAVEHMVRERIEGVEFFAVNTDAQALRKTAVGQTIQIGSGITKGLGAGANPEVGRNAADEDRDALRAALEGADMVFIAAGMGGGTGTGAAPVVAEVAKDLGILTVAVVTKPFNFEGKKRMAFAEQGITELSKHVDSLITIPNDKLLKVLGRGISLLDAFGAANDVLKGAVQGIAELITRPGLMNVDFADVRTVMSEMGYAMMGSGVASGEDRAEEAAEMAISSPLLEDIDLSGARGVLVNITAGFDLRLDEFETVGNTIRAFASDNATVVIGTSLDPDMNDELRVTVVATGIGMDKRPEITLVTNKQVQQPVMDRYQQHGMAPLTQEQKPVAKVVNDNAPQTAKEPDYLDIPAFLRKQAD

EfA (energy transfer efficiency) [1]: < 1.7% | EfA (energy transfer efficiency) [2]: 4%
B1: mCh–ZapA (wild-type Z-associated protein A fused to mCh) (natural protein, Escherichia coli, UniProt P0ADS2 1-109, looked up)
chain: MSAQPVDIQIFGRSLRVNCPPDQRDALNQAADDLNQRLQDLKERTRVTNTEQLVFIAALNISYELAQEKAKTRDYAASMEQRIRMLQQTIEQALLEQGRITEKTNQNFE
notes: Z-associated protein A (ZapA), Escherichia coli; also called mCh–ZapA^WT; ZapA^WT; source: E. coli TB28 ∆zapA or WT strain, expressed from plasmid pSAV077, in living cells; not shown: mCh, N-terminal, kept

EfA (energy transfer efficiency) [1]: < 1.7%
B2: mCh–ZapA^I83E (in vitro non-tetramerizing ZapA mutant fused to mCh) (natural protein, Escherichia coli, UniProt P0ADS2 1-109, looked up)
chain: B1 chain with I83E
notes: Z-associated protein A (ZapA), Escherichia coli, with I83E; made by exchanging zapA in pSAV077 with zapA^I83E from pRP071; also called pNM137; pTHV–mCh–ZapA^I83E; source: E. coli TB28 ∆zapA or WT strain, expressed from plasmid pNM137, in living cells; not shown: mCh, N-terminal, kept

EfA (energy transfer efficiency) [1]: < 1.7%
B3: mCh–PBP1b (PBP1b fused to mCh) (natural protein, UniProt P02919 1-844, looked up)
chain: MAGNDREPIGRKGKPTRPVKQKVSRRRYEDDDDYDDYDDYEDEEPMPRKGKGKGKGRKPRGKRGWLWLLLKLAIVFAVLIAIYGVYLDQKIRSRIDGKVWQLPAAVYGRMVNLEPDMTISKNEMVKLLEATQYRQVSKMTRPGEFTVQANSIEMIRRPFDFPDSKEGQVRARLTFDGDHLATIVNMENNRQFGFFRLDPRLITMISSPNGEQRLFVPRSGFPDLLVDTLLATEDRHFYEHDGISLYSIGRAVLANLTAGRTVQGASTLTQQLVKNLFLSSERSYWRKANEAYMALIMDARYSKDRILELYMNEVYLGQSGDNEIRGFPLASLYYFGRPVEELSLDQQALLVGMVKGASIYNPWRNPKLALERRNLVLRLLQQQQIIDQELYDMLSARPLGVQPRGGVISPQPAFMQLVRQELQAKLGDKVKDLSGVKIFTTFDSVAQDAAEKAAVEGIPALKKQRKLSDLETAIVVVDRFSGEVRAMVGGSEPQFAGYNRAMQARRSIGSLAKPATYLTALSQPKIYRLNTWIADAPIALRQPNGQVWSPQNDDRRYSESGRVMLVDALTRSMNVPTVNLGMALGLPAVTETWIKLGVPKDQLHPVPAMLLGALNLTPIEVAQAFQTIASGGNRAPLSALRSVIAEDGKVLYQSFPQAERAVPAQAAYLTLWTMQQVVQRGTGRQLGAKYPNLHLAGKTGTTNNNVDTWFAGIDGSTVTITWVGRDNNQPTKLYGASGAMSIYQRYLANQTPTPLNLVPPEDIADMGVDYDGNFVCSGGMRILPVWTSDPQSLCQQSEMQQQPSGNPFDQSSQPQQQPQQQPAQQEQKDSDGVAGWIKDMFGSN
notes: PBP1b; Negative control in the FRET assay; also called pBB008; pTHV–mCh–PBP1b; source: E. coli TB28 ∆zapA, expressed from plasmid pBB008, in living cells; not shown: mCh, N-terminal, kept
